Test results reported in paper PMC9080902 (Journal of thrombosis and haemostasis : JTH, 2021).

biological target: flag-tagged paxillin (UniProt P49023 1-591); assay: BLI
Sequence (P49023 whole entry): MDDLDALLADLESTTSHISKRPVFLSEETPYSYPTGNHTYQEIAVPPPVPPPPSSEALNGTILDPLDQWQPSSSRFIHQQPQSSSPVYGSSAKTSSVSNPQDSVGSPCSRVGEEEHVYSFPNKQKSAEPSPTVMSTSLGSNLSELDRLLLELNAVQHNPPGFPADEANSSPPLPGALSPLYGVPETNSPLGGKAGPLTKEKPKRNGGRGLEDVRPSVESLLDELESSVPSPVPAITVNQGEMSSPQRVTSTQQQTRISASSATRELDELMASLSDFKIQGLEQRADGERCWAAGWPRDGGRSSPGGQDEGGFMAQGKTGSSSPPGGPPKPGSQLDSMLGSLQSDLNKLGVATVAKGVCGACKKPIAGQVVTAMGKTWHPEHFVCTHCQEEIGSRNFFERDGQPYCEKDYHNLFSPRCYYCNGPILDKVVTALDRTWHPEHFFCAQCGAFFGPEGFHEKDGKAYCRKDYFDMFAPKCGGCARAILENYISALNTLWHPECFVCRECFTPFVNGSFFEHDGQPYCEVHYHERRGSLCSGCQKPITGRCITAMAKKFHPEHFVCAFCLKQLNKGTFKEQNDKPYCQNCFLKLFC

Kd [µM] | Binder
14.2 | GST-fused PH domain of kindlin-1 (374–496) (domain or fragment, UniProt Q9BQL6 374-496, looked up) DNLKLFRPKKLLPKAFKQYWFIFKDTSIAYFKNKELEQGEPLEKLNLRGCEVVPDVNVAGRKFGIKLLIPVADGMNEMYLRCDHENQYAQWMAACMLASKGKTMADSSYQPEVLNILSFLRMK
23.5 | GST-fused PH domain of kindlin-2 (374–499) (domain or fragment, UniProt Q96AC1 374-499, looked up) ELADYIKVFKPKKLTLKGYKQYWCTFKDTSISCYKSKEESSGTPAHQMNLRGCEVTPDVNISGQKFNIKLLIPVAEGMNEIWLRCDNEKQYAHWMAACRLASKGKTMADSSYNLEVQNILSFLKMQ
7.6 | GST-fused PH domain of kindlin-3 (351–476) (domain or fragment, UniProt Q86UX7-2 351-476, looked up) ELKDHLRIFRPRKLTLKGYRQHWVVFKETTLSYYKSQDEAPGDPIQQLNLKGCEVVPDVNVSGQKFCIKLLVPSPEGMSEIYLRCQDEQQYARWMAGCRLASKGRTMADSSYTSEVQAILAFLSLQ
